From US20020026033A1 (BOARD OF REGENTS OF THE UNIVERSITY OF OKLAHOMA, published 2002)
Ends that are not written are not given here. * marks the point of attachment. sulfate = O=S(=O)(O)*

Target: T1, recombinant soluble P-selectin (sPS) (UniProt P16109 42-771, limits assumed)
T1 construct: Neither the residues nor the species are stated
T1 sequence (looked up): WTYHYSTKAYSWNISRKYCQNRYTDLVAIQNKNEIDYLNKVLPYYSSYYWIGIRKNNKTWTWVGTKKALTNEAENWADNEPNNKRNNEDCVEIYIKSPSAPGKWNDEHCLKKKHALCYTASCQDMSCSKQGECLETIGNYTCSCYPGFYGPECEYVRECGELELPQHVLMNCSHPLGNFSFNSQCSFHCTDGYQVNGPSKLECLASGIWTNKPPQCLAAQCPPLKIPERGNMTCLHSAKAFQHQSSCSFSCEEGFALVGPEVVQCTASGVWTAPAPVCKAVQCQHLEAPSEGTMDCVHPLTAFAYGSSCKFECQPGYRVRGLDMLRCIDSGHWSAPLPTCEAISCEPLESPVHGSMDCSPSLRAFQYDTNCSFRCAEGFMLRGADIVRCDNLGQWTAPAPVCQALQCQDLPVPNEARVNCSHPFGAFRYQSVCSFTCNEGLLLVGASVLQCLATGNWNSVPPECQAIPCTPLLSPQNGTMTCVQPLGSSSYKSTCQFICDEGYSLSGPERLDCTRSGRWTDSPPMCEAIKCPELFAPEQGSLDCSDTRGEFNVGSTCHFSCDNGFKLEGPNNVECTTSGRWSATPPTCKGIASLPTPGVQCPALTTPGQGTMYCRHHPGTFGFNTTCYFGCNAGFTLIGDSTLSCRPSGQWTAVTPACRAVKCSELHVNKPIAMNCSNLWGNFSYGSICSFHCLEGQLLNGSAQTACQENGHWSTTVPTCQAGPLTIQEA
Assay: equilibrium gel filtration; fluid-phase sPS (25-1000 pmol) on columns equilibrated with 35SO3-GSP-6 in Ca2+-containing buffer
Description: Equilibrium gel filtration experiments were conducted in a Sephadex G-75 column (0.5×10 cm, 2 ml) equilibrated with 4 ml of 20 mM MOPS, pH 7.5, containing 150 mM NaCl, 2 mM CaCl₂, 2 mM MgCl₂, and 0.02% NaN₃ (buffer A), and ³⁵SO₃-GSP-6 (10,000 cpm/ml, specific activity 1700 cpm/pmol). Different amounts of soluble P-selectin (sPS) (25-1000 pmol) (Ushiyama et al., J. Biol. Chem., 268:15229-15237, 1993) were preincubated for 30-60 min in 120 μl of buffer A containing ³⁵SO₃-GSP-6 and applied to the column. Samples were eluted with buffer A (including ³⁵SO₃-GSP-6), and 140 μl fractions were collected at a flow rate of 70 μl/min. Radioactivity in the fractions was determined by liquid scintillation counting. Control experiments to test inhibitors of binding between sPS and GSP-6 were performed using 400 pmol of sPS and 5,000 cpm/ml of ³⁵SO₃-GSP-6. The EDTA concentration was 1 mM in 20 mM MOPS, pH 7.5, 150 mM NaCl, 0.02% NaN₃. Anti-P-selectin monoclonal antibodies (G1 and S12) (800 pmol each) were preincubated for 30 min with sPS in buffer A before ³⁵SO₃-GSP-6 was added. Elution was performed by using buffer A with ³⁵SO₃-GSP-6.
The dissociation constant (Kd) for binding of GSP-6 to soluble sPS was determined using an equilibrium gel filtration technique. […]

Kd: ~350 nM
B1: glycosulfopeptide-6 (GSP-6) (peptide)
peptide: GQATEY(sulfate)EY(sulfate)LDY(sulfate)DFLPETEPPEML
modifications: also: core-2 O-glycan with sialyl Lewis x on a Thr, position not given here
notes: range 42-63; Synthetic glycosulfopeptide; also called 35SO3-GSP-6; 35SO3-glycosulfopeptide-6
